Values belong to the molecule of their own block, whether it stands above or below them.
Key:
[1] = target: T1, Rac1 (Homo sapiens, UniProt P63000); experiment: In vitro GDP release assay (filter-binding) on Rac1; format: biochemical; settings: for dissociation of [3H]GDP from Rac1 (GEF activity): purified GST-IBP fusion protein, 4 pmol, [3H]GDP-loaded GST-Rac1
T1 construct: purchased Calbiochem-Novabiochem; host or cells: bacteria
Description: A-C, stimulation of GDP dissociation from Rho GTPases by wild-type or mutant IBP proteins. [^3H]GDP-loaded Rac1 (A), Cdc42 (B), or RhoA (C) was incubated with GST alone or with either wild-type or mutant GST-IBP fusion proteins, as indicated. The exchange reactions were stopped at the indicated time points, and the amount of [^3H]GDP remaining bound to the GTPases was then measured by filtering the quenched reaction samples over nitrocellulose membranes followed by scintillation counting of the membrane-bound radioactivity. The percentage of [^3H]GDP remaining bound at each time point was evaluated relative to the amount of radioactivity remaining at time 0 of the respective reaction, which was set to 100% in each experiment. The results shown are representative of at least three independent assays. D, regulation of IBP GEF activity by Lck and PI(3,4,5)P3. [^3H]GDP-loaded Rac1 was incubated with Lck-phosphorylated wild-type HA-IBP (IBP+Lck) in the presence or absence of PI(3,4,5)P3 (1 μM) for 0 or 40 min. Reactions without IBP (Lck and Lck^+ PI(3,4,5)P3) were simultaneously carried out as control. The exchange reactions were then stopped, and the amount of [^3H]GDP remaining bound to Rac1 was measured by filter-binding method as described for A-C. The percentage of [^3H]GDP remaining bound after incubation for 40 min was evaluated relative to the amount of radioactivity remaining at time 0 of the respective reaction, which was set to 100% in each experiment. The results shown are representative of at least three independent assays.
The in vitro GDP release assays were carried out by filter-binding method as described previously (28-31). To prepare [3H]GDP-loaded GTPases, 40 pmol of bacterially expressed and purified GST-Rac1, GST-Cdc42, or His-RhoA (Calbiochem-Novabiochem) was incubated with 1 μM [3H]GDP in 100 μl of a binding buffer (10 mM HEPES, pH 7.5, 100 mM NaCl, 5 mM MgCl2, 1 mM EGTA, 1 mM dithiothreitol, 50 μg/ml bovine serum albumin) for 60 min at 30° C. The nucleotide exchange reaction was initiated by adding 100 μM nonradioactive GTP and 4 pmol of purified GST alone or GST-IBP fusion proteins (or when appropriate, 4 pmol of purified wild-type HA-IBP either non-phosphorylated or in vitro phosphorylated by purified Lck and cold ATP) to the [3H]GDP-loaded GTPase and then equally splitting and incubating the reaction mixture for the indicated time periods at room temperature. […] The amount of [3H]GDP remaining bound to the GTPases was determined by filtering the quenched reaction samples over nitrocellulose membranes followed by extensive washing of the filters and then quantification of the membrane-bound radioactivity by scintillation counting.

[2] = target: T2, Cdc42 (Homo sapiens, UniProt P60953); experiment: In vitro GDP release assay (filter-binding) on Cdc42; format: biochemical; settings: purified GST-IBP fusion protein, 4 pmol; [3H]GDP-loaded GST-Cdc42
T2 construct: purchased Calbiochem-Novabiochem; host or cells: bacteria
T2 sequence (P60953 whole entry, species assumed, the tested form may be a part): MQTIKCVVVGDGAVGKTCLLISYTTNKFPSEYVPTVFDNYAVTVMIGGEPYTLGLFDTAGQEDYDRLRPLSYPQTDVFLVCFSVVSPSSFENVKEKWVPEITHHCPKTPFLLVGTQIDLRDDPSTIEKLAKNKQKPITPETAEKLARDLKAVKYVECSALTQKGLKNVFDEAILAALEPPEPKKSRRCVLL
Description: A-C, stimulation of GDP dissociation from Rho GTPases by wild-type or mutant IBP proteins. [^3H]GDP-loaded Rac1 (A), Cdc42 (B), or RhoA (C) was incubated with GST alone or with either wild-type or mutant GST-IBP fusion proteins, as indicated. The exchange reactions were stopped at the indicated time points, and the amount of [^3H]GDP remaining bound to the GTPases was then measured by filtering the quenched reaction samples over nitrocellulose membranes followed by scintillation counting of the membrane-bound radioactivity. The percentage of [^3H]GDP remaining bound at each time point was evaluated relative to the amount of radioactivity remaining at time 0 of the respective reaction, which was set to 100% in each experiment. The results shown are representative of at least three independent assays. D, regulation of IBP GEF activity by Lck and PI(3,4,5)P3. [^3H]GDP-loaded Rac1 was incubated with Lck-phosphorylated wild-type HA-IBP (IBP+Lck) in the presence or absence of PI(3,4,5)P3 (1 μM) for 0 or 40 min. […] The exchange reactions were then stopped, and the amount of [^3H]GDP remaining bound to Rac1 was measured by filter-binding method as described for A-C. The percentage of [^3H]GDP remaining bound after incubation for 40 min was evaluated relative to the amount of radioactivity remaining at time 0 of the respective reaction, which was set to 100% in each experiment. […]

Molecule: phosphatidylinositol 3,4,5-triphosphate [PI(3,4,5)P3, reference compound]
- GEF activity of Lck-phosphorylated wild-type IBP on Rac1 on addition of PI(3,4,5)P3 ([1]; PI(3,4,5)P3 1 μM, 40 min): stimulated

B1: IBP 313-631: IBP mutant containing the putative DH domain alone, GST fusion protein (protein, UniProt Q9H4E7 313-631, looked up, fragment)
chain: LQAEGKTSLHKDLKQKRREQREQRERRRAAKEEELLRLQQLQEEKERKLQELELLQEAQRQAERLLQEEEERRRSQHRELQQALEGQLREAEQARASMQAEMELKEEEAARQRQRIKELEEMQQRLQEALQLEVKARRDEESVRIAQTRLLEEEEEKLKQLMQLKEEQERYIERAQQEKEELQQEMAQQSRSLQQAQQQLEEVRQNRQRADEDVEAAQRKLRQASTNVKHWNVQMNRLMHPIEPGDKRPVTSSSFSGFQPPLLAHRDSSLKRLTRWGSQGNRTPSPNSNEQQKSLNGGDEAPAPASTPQEDKLDPAPEN
modifications: GST fusion
notes: IBP mutant containing the putative DH domain alone, GST fusion protein
- dissociation of [3H]GDP from Rac1 (GEF activity) [1]: stimulated rapid GDP dissociation
- dissociation of [3H]GDP from Cdc42 (GEF activity) [2]: stimulated rapid GDP dissociation

Next, values leading:

- ability of wild-type IBP to promote GDP-GTP exchange on Rac1 after phosphorylation by Lck ([1]; purified HA-IBP phosphorylated in vitro by purified Lck, 40 min): enhanced ability
Molecule: Lck: purified Lck kinase, Src family protein tyrosine kinase, used to phosphorylate IBP in vitro

- dissociation of [3H]GDP from Rac1 (GEF activity) [1]: did not stimulate the dissociation
- dissociation of [3H]GDP from Cdc42 (GEF activity) [2]: did not stimulate the dissociation
Molecule: wild-type IBP: purified recombinant full-length human IBP (IRF-4 Binding Protein), GST fusion or HA-tagged
